What was measured:
[1] = molecular target: A2_F24 VI56IV (RSV A2) (UniProt P03420); experiment: Octet endpoint assay, CR9501 on sensor, culture supernatant
[2] = molecular target: T1, B1_N67I, S215P loop (RSV B1, UniProt O36634 26-540); experiment: Quantitative Octet, CR9501 on sensor, culture supernatant
T1 construct: Whole entry named; it begins with the signal peptide 1-26; also called PreFL N67I S215P, RSV B1, fibritin, Loop; F24-N67I + S215P: RSV B1, linker stabilized, fibritin
T1 chain: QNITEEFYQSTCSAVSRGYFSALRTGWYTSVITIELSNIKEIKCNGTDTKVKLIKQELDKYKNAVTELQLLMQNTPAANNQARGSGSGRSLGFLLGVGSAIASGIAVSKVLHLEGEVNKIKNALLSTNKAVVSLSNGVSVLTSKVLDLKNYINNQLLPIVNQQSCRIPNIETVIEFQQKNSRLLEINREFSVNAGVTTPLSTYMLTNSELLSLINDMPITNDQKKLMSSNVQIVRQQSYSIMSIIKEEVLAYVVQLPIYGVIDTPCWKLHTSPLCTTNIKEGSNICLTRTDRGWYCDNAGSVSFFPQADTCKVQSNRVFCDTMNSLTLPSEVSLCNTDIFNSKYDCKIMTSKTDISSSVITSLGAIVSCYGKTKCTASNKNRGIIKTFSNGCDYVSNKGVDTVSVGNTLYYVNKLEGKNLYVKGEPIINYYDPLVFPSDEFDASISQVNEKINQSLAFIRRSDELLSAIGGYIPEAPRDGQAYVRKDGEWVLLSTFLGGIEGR
Protocol: (§1) To measure concentration of the pre-fusion RSV F protein in cell culture supernatants, quantitative Octet-based method was used. […] Afterwards, the coated biosensors were blocked in mock cell culture supernatant. Quantitative experiment was performed as follows: temperature 30° C., shaking speed 1000 rpm, time of the assay 300 seconds. Concentration of the protein in the cell culture supernatant was calculated using standard curve. The standard curve was prepared for each coated antibody using the A2_F24 N67I+S215P (SEQ NO:21) protein, diluted in mock cell culture supernatant. The measurement was done on the day of supernatant harvest (day 1) and after storage of the supernatant at 4° C. for 5 days or longer. […] The data analysis was done using the FORTEBIO® Data Analysis 6.4 software (FORTEBIO®).

[3] = molecular target: T2, B1_N67I, S215P (RSV B1, UniProt O36634 27-109; O36634 137-540); experiment: as above
T2 construct: also called PreF N67I S215P, RSV B1, fibritin
T2 chain 1: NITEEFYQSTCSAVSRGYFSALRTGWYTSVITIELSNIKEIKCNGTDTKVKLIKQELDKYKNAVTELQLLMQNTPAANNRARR
T2 chain 2: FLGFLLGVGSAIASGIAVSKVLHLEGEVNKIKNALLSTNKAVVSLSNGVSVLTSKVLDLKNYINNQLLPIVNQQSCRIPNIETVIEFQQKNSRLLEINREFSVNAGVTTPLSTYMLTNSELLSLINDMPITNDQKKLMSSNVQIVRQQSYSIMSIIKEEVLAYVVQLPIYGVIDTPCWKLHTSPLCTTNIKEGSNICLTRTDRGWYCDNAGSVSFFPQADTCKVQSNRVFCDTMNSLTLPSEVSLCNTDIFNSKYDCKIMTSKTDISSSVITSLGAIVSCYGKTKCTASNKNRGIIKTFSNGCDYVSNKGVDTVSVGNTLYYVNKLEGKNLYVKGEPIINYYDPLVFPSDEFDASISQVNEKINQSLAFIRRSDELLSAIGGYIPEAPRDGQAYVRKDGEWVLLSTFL
Protocol: as §1

Molecule: CR9501 (antibody)
- % of CR9501 binding after 5 days at 4 C relative to day 1 [1]: 54%

B1: CR9501 (antibody, V domains shown)
VH: QVQLVQSGPGLVKPSQTLALTCNVSGASINSDNYYWTWIRQRPGGGLEWIGHISYTGNTYYTPSLKSRLSMSLETSQSQFSLRLTSVTAADSAVYFCAACGAYVLISNCGWFDSWGQGTQVTVSS
VL: EIVMTQSPSSLSASIGDRVTITCQASQDISTYLNWYQQKPGQAPRLLIYGASNLETGVPSRFTGSGYGTDFSVTISSLQPEDIATYYCQQYQYLPYTFAPGTKVEIK
notes: Monoclonal antibody with the variable regions of 58C5; Biotinylated and immobilised on streptavidin sensors in the Octet assays; also called pre-fusion-specific Mab CR9501
- % protein concentration (CR9501) after 5 days at 4 C relative to day of harvest [2]: 108%
- % protein concentration (CR9501) after 5 days at 4 C relative to day of harvest [3]: 90.9%

From patent publication US20160176932A1 (Janssen / Centocor, published 2016)
